Patent US20090022717A1 (CHEMOCENTRYX, published 2009)

B1: monoclonal antibody 11G8 (antibody, V domains shown)
VH: EVKLVESGGDLVQPGGSLKLSCATSGFTFSDYYMFWVRQTPEKRLEWVAYITNGGDRSYYSDTVTGRFIISRDNAKNTLYLQMSRLKSEDTAMYYCARQGNWAAWFVYWGQGTLVTVSA
VL: DVLMTQTPLSLPVSLGDQASISCRSSHYIVHSDGNTYLEWYLQKPGQSPKLLIYKVSNRFSGVPDRFSGSGSGTDFTLKISRVEAEDLGIYYCFQGSHVPLTFGAGTKLELKR
notes: Mouse hybridoma monoclonal raised by gene gun immunisation with CXCR7 cDNA
B2: monoclonal antibody 6E10 (antibody, V domains shown)
VH: EVKLDETGGGLVQPGRPMKLSCVASGFTFSDYWMNWVRQSPEKGLEWVGQIRNKPYNYETYYSDSVKGRFTISRDDSKSSVYLQMNNLRTEDTGIYYCTSLRYWGQGTLVTVSA
VL: DIVMTQSPSSLTVTAGEKVTMSCKSSHSLLNSGIQKNFLTWYQQKPGQPPKVLIYWAFTRESGVPERFTGSGSGTDFTLTISSVQAEDLAVYYCQSDYTYPFTFGSGTKLEIKR
notes: as for B1

Key:
monoclonal antibody 11G8 [1] = molecular target: B1; assay: peptide competition of antibody staining of CXCR7-expressing cells, FACS
Description: (§1) We have established that both 11G8 and 6E10 antibodies recognize CXCR7 receptor expressed on the surface of cells by FACS. This is represented as an increase in florescent signal (filled) over background (open line) along the X axis of FACS plot (FIG. 2). To interrogate which amino acid residues 11G8 and 6E10 recognize and bind to, a number of short peptides (0.5-5 μg) derived from the CXCR7 sequence were pre-incubated with either antibody (0.5-5 μg) in 100 μl PBS. This mixture was then incubated with 500,000 cells expressing CXCR7 for 15 minutes at room temperature. If the antibody recognized the sequence encoded by the peptide, then the peptide would effectively compete antibody away from binding to the cell associated receptor resulting in a subsequent reduction in florescence on a FACS plot. […] These readouts are exemplified in FIG. 2 with “no peptide” representing […] antibody staining, “peptide 2.2.1” representing peptide competition, and “peptide 2.3.4” representing no peptide competition. Through slight alternations of the peptide sequence in this assay, the minimal peptide sequence necessary for antibody recognition was discerned. FIG. 3 illustrates a summary of peptides that competed with either antibody 11G8 or 6E10.

monoclonal antibody 6E10 = molecular target: B2; assay: as above
Description: as §1

monoclonal antibody 11G8 [2] = molecular target: B1; assay: peptide pre-incubated with antibody, then FACS staining of CXCR7-expressing cells (FIG. 2, 11G8 on 435-CXCR7 cells)
Description: as §1

human CXCR7 = molecular target: T1, human CXCR7 (human, UniProt P25106 1-362); assay: flow cytometry on CXCR7 transfectants (HEK 293) and on HeLa and MCF-7 cells
T1 construct: also called RDC1; CCX-CKR2

mouse CXCR7 = molecular target: T2, mouse CXCR7 (mouse, UniProt P56485 1-362); assay: detection on mouse 4T1 mammary tumor cells and Lewis lung carcinoma cells
T2 construct: whole, on cells; Endogenous on the mouse mammary tumor line 4T1 and on Lewis lung carcinoma cells; also E13 fetal mouse sections; also called mouse homolog of CXCR7

CXCR2 = molecular target: T3, CXCR2 (UniProt P25025 1-360, limits assumed); assay: flow cytometry on transfected HEK 293 cells
T3 construct: whole, on cells
T3 sequence (looked up): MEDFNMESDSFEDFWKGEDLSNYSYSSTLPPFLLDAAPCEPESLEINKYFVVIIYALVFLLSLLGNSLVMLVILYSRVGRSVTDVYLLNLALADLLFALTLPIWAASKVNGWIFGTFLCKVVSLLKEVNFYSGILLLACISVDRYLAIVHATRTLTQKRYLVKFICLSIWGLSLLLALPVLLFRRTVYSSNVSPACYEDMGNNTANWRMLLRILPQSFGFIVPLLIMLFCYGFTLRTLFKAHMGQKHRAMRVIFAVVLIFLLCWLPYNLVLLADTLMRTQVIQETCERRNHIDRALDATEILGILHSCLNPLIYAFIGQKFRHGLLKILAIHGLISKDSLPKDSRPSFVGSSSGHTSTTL

T2 sequence (P56485 whole entry): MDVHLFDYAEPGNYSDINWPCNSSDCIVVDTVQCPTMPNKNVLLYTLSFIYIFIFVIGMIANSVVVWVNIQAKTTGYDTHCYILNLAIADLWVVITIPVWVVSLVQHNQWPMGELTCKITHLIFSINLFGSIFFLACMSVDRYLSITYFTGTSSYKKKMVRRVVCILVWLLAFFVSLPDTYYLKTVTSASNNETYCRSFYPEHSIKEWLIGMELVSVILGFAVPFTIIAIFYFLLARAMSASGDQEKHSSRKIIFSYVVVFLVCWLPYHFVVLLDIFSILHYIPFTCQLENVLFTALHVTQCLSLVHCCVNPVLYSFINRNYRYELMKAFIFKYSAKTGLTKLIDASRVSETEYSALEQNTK
T1 sequence (P25106 whole entry): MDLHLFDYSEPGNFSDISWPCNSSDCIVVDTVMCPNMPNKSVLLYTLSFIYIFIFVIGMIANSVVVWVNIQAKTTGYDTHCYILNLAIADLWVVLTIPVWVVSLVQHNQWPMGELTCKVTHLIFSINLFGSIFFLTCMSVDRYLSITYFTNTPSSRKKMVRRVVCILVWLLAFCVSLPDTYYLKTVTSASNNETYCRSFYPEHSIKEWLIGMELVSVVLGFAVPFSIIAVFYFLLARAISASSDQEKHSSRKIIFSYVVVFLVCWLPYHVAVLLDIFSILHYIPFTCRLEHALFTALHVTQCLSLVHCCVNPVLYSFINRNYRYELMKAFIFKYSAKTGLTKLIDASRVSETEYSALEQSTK

Binder	binding result (monoclonal antibody 11G8 [1])	binding result (monoclonal antibody 6E10)	also measured
DYSEPGNFSDISWPC (also called Peptide 9C4) [SEQ ID NO 11]	binds		
WPCNSSDCIVV (also called Peptide 2.2.5) [SEQ ID NO 16]		binds	
FSDISWPC (also called Peptide 2.2.1) [SEQ ID NO 12]	binds		
SWPCNSSDCIVV (also called Peptide 2.1.2) [SEQ ID NO 9]		binds	
NWPCNSSDCIVV (also called Peptide 2.2.6) [SEQ ID NO 17]		binds	
NFSDISWP (also called Peptide 2.3.1) [SEQ ID NO 18]	binds		
PCNSSDCIV [peptide 2.3.4]			binding result (monoclonal antibody 11G8 [2]): no binding
B1			binding result (human CXCR7): binds; binding result (mouse CXCR7): binds; binding result (CXCR2): no binding
FSDISWPCNSSDCIVVD (also called Peptide 2) [SEQ ID NO 2]	binds	binds	
DISWPCNSSDCI (also called Peptide 2.1.1) [SEQ ID NO 8]		binds	
YSDINWPC (also called Peptide 2.2.3) [SEQ ID NO 14]	binds		
B2			binding result (human CXCR7): binds; binding result (mouse CXCR7): binds; binding result (CXCR2): no binding
